# Test results: the Human Domainome abundance scans (Beltran et al. 2025)
# ± gives the uncertainty stated by the source.
# B1: Nuclear receptor subfamily 4 group A member 2, residues 260 to 336; numbered along this chain, P43354 (parent)
# chain: EGLCAVCGDNAACQHYGVRTCEGCKGFFKRTVQKNAKYVCLANKNCPVDKRRRNRCQYCRFQKCLAVGMVKEVVRTD
# Variants of: B1
# Assay: abundance fitness (aPCA) (normalised: wild type 0, dead -1); higher = more abundant; growth selection in yeast, the domain comes from the species named
# Details: Homo sapiens
row,Variant,abundance fitness
1,EGLCAVCGDNAACQHYGVRTCEGCKGFFKRTVQKNAKYVCRANKNCPVDKRRRNRCQYCRFQKCLAVGMVKEVVRTD [L41R],-0.064 ± 0.095
2,EGLCAVCGDNAACQHYGVRTCEGCKGFFKRTVQKNAKYVCAANKNCPVDKRRRNRCQYCRFQKCLAVGMVKEVVRTD [L41A],-0.025 ± 0.29
3,EGLCAVCGDNAACQHYGVRTCEGCKGFFKRTVQKNAKYVCEANKNCPVDKRRRNRCQYCRFQKCLAVGMVKEVVRTD [L41E],0.064 ± 0.17
4,EGLCAVCGDNAACQHYGVRTCEGCKGFFKRTVQKNAKYVCVANKNCPVDKRRRNRCQYCRFQKCLAVGMVKEVVRTD [L41V],0.022 ± 0.15
5,EGLCAVCGDNAACQHYGVRTCEGCKGFFKRTVQKNAKYVCPANKNCPVDKRRRNRCQYCRFQKCLAVGMVKEVVRTD [L41P],0.241 ± 0.27
6,EGLCAVCGDNAACQHYGVRTCEGCKGFFKRTVQKNAKYVCTANKNCPVDKRRRNRCQYCRFQKCLAVGMVKEVVRTD [L41T],-0.08 ± 0.22
7,EGLCAVCGDNAACQHYGVRTCEGCKGFFKRTVQKNAKYVCMANKNCPVDKRRRNRCQYCRFQKCLAVGMVKEVVRTD [L41M],0.039 ± 0.11
8,EGLCAVCGDNAACQHYGVRTCEGCKGFFKRTVQKNAKYVCSANKNCPVDKRRRNRCQYCRFQKCLAVGMVKEVVRTD [L41S],-0.072 ± 0.16
9,EGLCAVCGDNAACQHYGVRTCEGCKGFFKRTVQKNAKYVCHANKNCPVDKRRRNRCQYCRFQKCLAVGMVKEVVRTD [L41H],-0.069 ± 0.37
10,EGLCAVCGDNAACQHYGVRTCEGCKGFFKRTVQKNAKYVCKANKNCPVDKRRRNRCQYCRFQKCLAVGMVKEVVRTD [L41K],-0.167 ± 0.25
11,EGLCAVCGDNAACQHYGVRTCEGCKGFFKRTVQKNAKYVCGANKNCPVDKRRRNRCQYCRFQKCLAVGMVKEVVRTD [L41G],-0.109 ± 0.11
12,EGLCAVCGDNAACQHYGVRTCEGCKGFFKRTVQKNAKYVCQANKNCPVDKRRRNRCQYCRFQKCLAVGMVKEVVRTD [L41Q],-0.248 ± 0.27
13,EGLCAVCGDNAACQHYGVRTCEGCKGFFKRTVQKNAKYVCLANKNCSVDKRRRNRCQYCRFQKCLAVGMVKEVVRTD [P47S],-0.076 ± 0.12
14,EGLCAVCGDNAACQHYGVRTCEGCKGFFKRTVQKNAKYVCLANKNCFVDKRRRNRCQYCRFQKCLAVGMVKEVVRTD [P47F],-0.183 ± 0.1
15,EGLCAVCGDNAACQHYGVRTCEGCKGFFKRTVQKNAKYVCLANKNCLVDKRRRNRCQYCRFQKCLAVGMVKEVVRTD [P47L],-0.004 ± 0.063
16,EGLCAVCGDNAACQHYGVRTCEGCKGFFKRTVQKNAKYVCLANKNCIVDKRRRNRCQYCRFQKCLAVGMVKEVVRTD [P47I],0.009 ± 0.2
17,EGLCAVCGDNAACQHYGVRTCEGCKGFFKRTVQKNAKYVCLANKNCDVDKRRRNRCQYCRFQKCLAVGMVKEVVRTD [P47D],0.106 ± 0.098
18,EGLCAVCGDNAACQHYGVRTCEGCKGFFKRTVQKNAKYVCLANKNCEVDKRRRNRCQYCRFQKCLAVGMVKEVVRTD [P47E],-0.083 ± 0.17
19,EGLCAVCGDNAACQHYGVRTCEGCKGFFKRTVQKNAKYVCLANKNCCVDKRRRNRCQYCRFQKCLAVGMVKEVVRTD [P47C],-0.184 ± 0.081
20,EGLCAVCGDNAACQHYGVRTCEGCKGFFKRTVQKNAKYVCLANKNCAVDKRRRNRCQYCRFQKCLAVGMVKEVVRTD [P47A],-0.033 ± 0.13
21,EGLCAVCGDNAACQHYGVRTCEGCKGFFKRTVQKNAKYVCLANKNCMVDKRRRNRCQYCRFQKCLAVGMVKEVVRTD [P47M],-0.239 ± 0.48
22,EGLCAVCGDNAACQHYGVRTCEGCKGFFKRTVQKNAKYVCLANKNCGVDKRRRNRCQYCRFQKCLAVGMVKEVVRTD [P47G],-0.085 ± 0.037
23,EGLCAVCGDNAACQHYGVRTCEGCKGFFKRTVQKNAKYVCLANKNCRVDKRRRNRCQYCRFQKCLAVGMVKEVVRTD [P47R],-0.102 ± 0.092
24,EGLCAVCGDNAACQHYGVRTCEGCKGFFKRTVQKNAKYVCLAWKNCPVDKRRRNRCQYCRFQKCLAVGMVKEVVRTD [N43W],-0.011 ± 0.16

row,Variant,abundance fitness
1,EGLCAVCGDNAACQHYGVRTCEGCKGFFKRTVQKNAKYVCLATKNCPVDKRRRNRCQYCRFQKCLAVGMVKEVVRTD [N43T],-0.505 ± 0.33
2,EGLCAVCGDNAACQHYGVRTCEGCKGFFKRTVQKNAKYVCLARKNCPVDKRRRNRCQYCRFQKCLAVGMVKEVVRTD [N43R],-0.014 ± 0.15
3,EGLCAVCGDNAACQHYGVRTCEGCKGFFKRTVQKNAKYVCLAIKNCPVDKRRRNRCQYCRFQKCLAVGMVKEVVRTD [N43I],-0.231 ± 0.24
4,EGLCAVCGDNAACQHYGVRTCEGCKGFFKRTVQKNAKYVCLAAKNCPVDKRRRNRCQYCRFQKCLAVGMVKEVVRTD [N43A],0.245 ± 0.12
5,EGLCAVCGDNAACQHYGVRTCEGCKGFFKRTVQKNAKYVCLALKNCPVDKRRRNRCQYCRFQKCLAVGMVKEVVRTD [N43L],-0.059 ± 0.14
6,EGLCAVCGDNAACQHYGVRTCEGCKGFFKRTVQKNAKYVCLAQKNCPVDKRRRNRCQYCRFQKCLAVGMVKEVVRTD [N43Q],-0.283 ± 0.29
7,EGLCAVCGDNAACQHYGVRTCEGCKGFFKRTVQKNAKYVCLASKNCPVDKRRRNRCQYCRFQKCLAVGMVKEVVRTD [N43S],-0.123 ± 0.15
8,EGLCAVCGDNAACQHYGVRTCEGCKGFFKRTVQKNAKYVCLAFKNCPVDKRRRNRCQYCRFQKCLAVGMVKEVVRTD [N43F],0.046 ± 0.46
9,EGLCAVCGDNAACQHYGVRTCEGCKGFFKRTVQKNAKYVCLAPKNCPVDKRRRNRCQYCRFQKCLAVGMVKEVVRTD [N43P],-0.219 ± 0.21
10,EGLCAVCGDNAACQHYGVRTCEGCKGFFKRTVQKNAKYVCLAGKNCPVDKRRRNRCQYCRFQKCLAVGMVKEVVRTD [N43G],-0.202 ± 0.12
11,EGLCAVCGDNAACQHYGVRTCEGCKGFFKRTVQKNAKYVCLAEKNCPVDKRRRNRCQYCRFQKCLAVGMVKEVVRTD [N43E],-0.198 ± 0.16
12,EGLCAVCGDNAACQHYGVRTCEGCKGFFKRTVQKNAKYVCLAMKNCPVDKRRRNRCQYCRFQKCLAVGMVKEVVRTD [N43M],-0.173 ± 0.27
13,EGLCAVCGDNAACQHYGVRTCEGCKGFFKRTVQKNAKYVCLAVKNCPVDKRRRNRCQYCRFQKCLAVGMVKEVVRTD [N43V],-0.014 ± 0.1
14,EGLCAVCGDNAACQHYGVRTCEGCKGFFKRTVQKNAKYVYLANKNCPVDKRRRNRCQYCRFQKCLAVGMVKEVVRTD [C40Y],0.296 ± 0.32
15,EGLCAVCGDNAACQHYGVRTCEGCKGFFKRTVQKNAKYVRLANKNCPVDKRRRNRCQYCRFQKCLAVGMVKEVVRTD [C40R],-0.799 ± 0.4
16,EGLCAVCGDNAACQHYGVRTCEGCKGFFKRTVQKNAKYVWLANKNCPVDKRRRNRCQYCRFQKCLAVGMVKEVVRTD [C40W],-0.761 ± 0.31
17,EGLCAVCGDNAACQHYGVRTCEGCKGFFKRTVQKNAKYVCLANKNGPVDKRRRNRCQYCRFQKCLAVGMVKEVVRTD [C46G],-0.897 ± 0.056
18,EGLCAVCGDNAACQHYGVRTCEGCKGFFKRTVQKNAKYVCLANKNLPVDKRRRNRCQYCRFQKCLAVGMVKEVVRTD [C46L],-0.609 ± 0.1
19,EGLCAVCGDNAACQHYGVRTCEGCKGFFKRTVQKNAKYVCLANKNEPVDKRRRNRCQYCRFQKCLAVGMVKEVVRTD [C46E],-1.09 ± 0.46
20,EGLCAVCGDNAACQHYGVRTCEGCKGFFKRTVQKNAKYVCLANKNSPVDKRRRNRCQYCRFQKCLAVGMVKEVVRTD [C46S],-0.754 ± 0.19
21,EGLCAVCGDNAACQHYGVRTCEGCKGFFKRTVQKNAKYVCLANKNRPVDKRRRNRCQYCRFQKCLAVGMVKEVVRTD [C46R],-1.07 ± 0.22
22,EGLCAVCGDNAACQHYGVRTCEGCKGFFKRTVQKNAKYVCLANKNMPVDKRRRNRCQYCRFQKCLAVGMVKEVVRTD [C46M],-0.993 ± 0.35
23,EGLCAVCGDNAACQHYGVRTCEGCKGFFKRTVQKNAKYVCLANKNAPVDKRRRNRCQYCRFQKCLAVGMVKEVVRTD [C46A],-1.16 ± 0.37
24,EGLCAVCGDNAACQHYGVRTCEGCKGFFKRTVQKNAKYVCLANKNWPVDKRRRNRCQYCRFQKCLAVGMVKEVVRTD [C46W],-1.03 ± 0.13

row,Variant,abundance fitness
1,EGLCAVCGDNAACQHYGVRTCEGCKGFFKRTVQKNAKYVCLANKNVPVDKRRRNRCQYCRFQKCLAVGMVKEVVRTD [C46V],-0.851 ± 0.077
2,EGLCAVCGDNAACQHYGVRTCEGCKGFFKRTVQKNAKYVCLANWNCPVDKRRRNRCQYCRFQKCLAVGMVKEVVRTD [K44W],-0.126 ± 0.17
3,EGLCAVCGDNAACQHYGVRTCEGCKGFFKRTVQKNAKYVCLANGNCPVDKRRRNRCQYCRFQKCLAVGMVKEVVRTD [K44G],-0.052 ± 0.09
4,EGLCAVCGDNAACQHYGVRTCEGCKGFFKRTVQKNAKYVCLANTNCPVDKRRRNRCQYCRFQKCLAVGMVKEVVRTD [K44T],-0.028 ± 0.15
5,EGLCAVCGDNAACQHYGVRTCEGCKGFFKRTVQKNAKYVCLANCNCPVDKRRRNRCQYCRFQKCLAVGMVKEVVRTD [K44C],-0.464 ± 0.21
6,EGLCAVCGDNAACQHYGVRTCEGCKGFFKRTVQKNAKYVCLANVNCPVDKRRRNRCQYCRFQKCLAVGMVKEVVRTD [K44V],-0.371 ± 0.21
7,EGLCAVCGDNAACQHYGVRTCEGCKGFFKRTVQKNAKYVCLANDNCPVDKRRRNRCQYCRFQKCLAVGMVKEVVRTD [K44D],-0.093 ± 0.16
8,EGLCAVCGDNAACQHYGVRTCEGCKGFFKRTVQKNAKYVCLANLNCPVDKRRRNRCQYCRFQKCLAVGMVKEVVRTD [K44L],-0.096 ± 0.16
9,EGLCAVCGDNAACQHYGVRTCEGCKGFFKRTVQKNAKYVCLANRNCPVDKRRRNRCQYCRFQKCLAVGMVKEVVRTD [K44R],-0.03 ± 0.12
10,EGLCAVCGDNAACQHYGVRTCEGCKGFFKRTVQKNAKYVCLANYNCPVDKRRRNRCQYCRFQKCLAVGMVKEVVRTD [K44Y],-0.053 ± 0.37
11,EGLCAVCGDNAACQHYGVRTCEGCKGFFKRTVQKNAKYVCLANANCPVDKRRRNRCQYCRFQKCLAVGMVKEVVRTD [K44A],-0.265 ± 0.24
12,EGLCAVCGDNAACQHYGVRTCEGCKGFFKRTVQKNAKYVCLANHNCPVDKRRRNRCQYCRFQKCLAVGMVKEVVRTD [K44H],-0.129 ± 0.25
13,EGLCAVCGDNAACQHYGVRTCEGCKGFFKRTVQKNAKYVCLANMNCPVDKRRRNRCQYCRFQKCLAVGMVKEVVRTD [K44M],0.037 ± 0.14
14,EGLCAVCGDNAACQHYGVRTCEGCKGFFKRTVQKNAKYVCLKNKNCPVDKRRRNRCQYCRFQKCLAVGMVKEVVRTD [A42K],0.629 ± 0.5
15,EGLCAVCGDNAACQHYGVRTCEGCKGFFKRTVQKNAKYVCLNNKNCPVDKRRRNRCQYCRFQKCLAVGMVKEVVRTD [A42N],-0.452 ± 0.49
16,EGLCAVCGDNAACQHYGVRTCEGCKGFFKRTVQKNAKYVCLINKNCPVDKRRRNRCQYCRFQKCLAVGMVKEVVRTD [A42I],-0.183 ± 0.23
17,EGLCAVCGDNAACQHYGVRTCEGCKGFFKRTVQKNAKYVCLTNKNCPVDKRRRNRCQYCRFQKCLAVGMVKEVVRTD [A42T],0.002 ± 0.13
18,EGLCAVCGDNAACQHYGVRTCEGCKGFFKRTVQKNAKYVCLRNKNCPVDKRRRNRCQYCRFQKCLAVGMVKEVVRTD [A42R],-0.255 ± 0.12
19,EGLCAVCGDNAACQHYGVRTCEGCKGFFKRTVQKNAKYVCLSNKNCPVDKRRRNRCQYCRFQKCLAVGMVKEVVRTD [A42S],0.048 ± 0.17
20,EGLCAVCGDNAACQHYGVRTCEGCKGFFKRTVQKNAKYVCLGNKNCPVDKRRRNRCQYCRFQKCLAVGMVKEVVRTD [A42G],-0.09 ± 0.28
21,EGLCAVCGDNAACQHYGVRTCEGCKGFFKRTVQKNAKYVCLVNKNCPVDKRRRNRCQYCRFQKCLAVGMVKEVVRTD [A42V],-0.09 ± 0.14
22,EGLCAVCGDNAACQHYGVRTCEGCKGFFKRTVQKNAKYVCLMNKNCPVDKRRRNRCQYCRFQKCLAVGMVKEVVRTD [A42M],-0.208 ± 0.43
23,EGLCAVCGDNAACQHYGVRTCEGCKGFFKRTVQKNAKYVCLWNKNCPVDKRRRNRCQYCRFQKCLAVGMVKEVVRTD [A42W],-0.305 ± 0.23
